Source: publication PMC10575590, “Molecular basis of ClC-6 function and its impairment in human disease” (Science Advances, 2023)
Residue numbers refer to the chain shown, from its start. Names and notes keep the numbering of the source.

B1: human ClC-6 (natural protein)
chain: MAGCRGSLCCCCRWCCCCGERETRTPEELTILGETQEEEDEILPRKDYESLDYDRCINDPYLEVLETMDNKKGRRYEAVKWMVVFAIGVCTGLVGLFVDFFVRLFTQLKFGVVQTSVEECSQKGCLALSLLELLGFNLTFVFLASLLVLIEPVAAGSGIPEVKCYLNGVKVPGIVRLRTLLCKVLGVLFSVAGGLFVEKEGPMIHSGSVVGAGLPQFQSISLRKIQFNFPYFRSDRDKRDFVSAGAAAGVAAAFGAPIGGTLFSLEEGSSFWNQGLTWKVLFCSMSATFTLNFFRSGIQFGSWGSFQLPGLLNFGEFKCSDSDKKCHLWTAMDLGFFVVMGVIGGLLGATFNCLNKRLAKYRMRNVHPKPKLVRVLESLLVSLVTTVVVFVASMVLGECRQMSSSSQIGNDSFQLQVTEDVNSSIKTFFCPNDTYNDMATLFFNPQESAILQLFHQDGTFSPVTLALFFVLYFLLACWTYGISVPSGLFVPSLLCGAAFGRLVANVLKSYIGLGHIYSGTFALIGAAAFLGGVVRMTISLTVILIESTNEITYGLPIMVTLMVAKWTGDFFNKGIYDIHVGLRGVPLLEWETEVEMDKLRASDIMEPNLTYVYPHTRIQSLVSILRTTVHHAFPVVTENRGNEKEFMKGNQLISNNIKFKKSSILTRAGEQRKRSQSMKSYPSSELRNMCDEHIASEEPAEKEDLLQQMLERRYTPYPNLYPDQSPSEDWTMEERFRPLTFHGLILRSQLVTLLVRGVCYSESQSSASQPRLSYAEMAEDYPRYPDIHDLDLTLLNPRMIVDVTPYMNPSPFTVSPNTHVSQVFNLFRTMGLRHLPVVNAVGEIVGIITRHNLTYEFLQARLRQHYQTI
notes: ClC-6 (chloride-proton exchanger), human; cDNA in the pEG BacMam vector; residues up to H851 are seen in the structure, so the whole protein is likely; also called WT ClC-6; apo-ClC-6; source: HEK293F cells, BacMam virus, purified (Strep-Tactin Sepharose, size exclusion chromatography) in digitonin
B2: ClC-6 mutant (Y553C) (natural protein, human)
chain: B1 chain with Y553C
notes: ClC-6, human, with the disease-causing patient variant p.Y553C; made as apo-ClC-6; Variant found in patients (heterozygous p.Y553C), so the origin is written as natural; also called Y553C mutant; p.Y553C; source: HEK293F cells, BacMam virus, purified (Strep-Tactin Sepharose, size exclusion chromatography) in digitonin

Target: the molecule itself
Assay: cryo-EM structure; purified ClC-6 in 150 mM NaCl, 0.1% digitonin, 20 mM Hepes pH 7.4; apo, with 2 mM ATP and 2 mM MgCl2, and the Y553C mutant; C2 symmetry imposed

| Protein | stoichiometry N | binding result |
| --- | --- | --- |
| B1 | 2 | – |
| B2 | – | binds |
